Results taken from patent publication US20230125550A1 (ARCELLX, published 2023).
Changes are numbered by the printed parent chain.

T1: recombinant human CD123-Fc (human, UniProt P26951 19-305)
T1 construct: not shown: Fc part of CD123-Fc
T1 sequence: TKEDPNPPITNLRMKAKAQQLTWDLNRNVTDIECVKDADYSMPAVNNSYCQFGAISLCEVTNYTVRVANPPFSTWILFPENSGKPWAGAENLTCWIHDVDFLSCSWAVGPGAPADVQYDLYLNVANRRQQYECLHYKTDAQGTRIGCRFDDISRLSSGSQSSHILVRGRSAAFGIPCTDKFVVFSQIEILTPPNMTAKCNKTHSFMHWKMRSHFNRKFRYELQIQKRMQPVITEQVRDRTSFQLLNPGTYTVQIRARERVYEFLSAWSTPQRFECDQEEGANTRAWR

B1: SEQ ID NO: 492 (designed binder)
chain: MGSWVLFKEELAYIKFELEALGGSEAELALFENVIAIFESNLQNYKGKGNPEVEALRKEAAAIRDELQAYRHN
notes: D domain, on phage
B2: SEQ ID NO: 512 (designed binder)
chain: MGSWWLFKEQLALIKYNLEALGGSEAELADFESWIAEFEHQLQEYKGKGNPEVEALRKEAAAIRDELQAYRHN
notes: D domain, on phage
B3: SEQ ID NO: 486 (designed binder)
chain: MGSWSFFKDDLAEIKYFLEALGGSEAELAMFEQTIAEFEYDLQDYKGKGNPEVEALRKEAAAIRDELQAYRHN
notes: D domain, on phage
B4: SEQ ID NO: 487 (designed binder)
chain: B3 chain with S5M, F6E, D9E, D10E, F17I, M30W, T34S, E37D
notes: D domain, on phage
B5: SEQ ID NO: 475 (designed binder)
chain: MGSWSWFKEDLAEIKMELEALGGSEAELAYFEWYIAEFEFQLQHYKGKGNPEVEALRKEAAAIRDELQAYRHN
notes: D domain, on phage
B6: SEQ ID NO: 478 (designed binder)
chain: B5 chain with E13S, M16A, E17V, Y30F, W33S, Y34D, F40Q, Q41E, H44Y
notes: D domain, on phage
B7: SEQ ID NO: 476 (designed binder)
chain: B5 chain with E9Q, E13D, M16I, E17Q, Y30W, Y34D, Q41E, H44D
notes: D domain, on phage
B8: SEQ ID NO: 477 (designed binder)
chain: B5 chain with E13D, M16F, Y30W, W33L, Y34D, E37D, F40Q, Q41A, H44Q
notes: D domain, on phage
B9: SEQ ID NO: 491 (designed binder)
chain: B5 chain with S5Y, W6I, M16E, W33E, Y34E, E37L, F40M, Q41E, H44W
notes: D domain, on phage
B10: SEQ ID NO: 508 (designed binder)
chain: MGSWFNFKEELAVIKFQLEALGGSEAELAFFEWVIADFEDDLQEYKGKGNPEVEALRKEAAAIRDELQAYRHN
notes: D domain, on phage
B11: SEQ ID NO: 515 (designed binder)
chain: MGSWGWFKHELAFIKADLEALGGSEAELAWFEEEIAEFEYELQFYKGKGNPEVEALRKEAAAIRDELQAYRHN
notes: D domain, on phage
B12: SEQ ID NO: 502 (designed binder)
chain: MGSWHWFKIVLADIKDGLEALGGSEAELAYFETTIADFEMDLQHYKGKGNPEVEALRKEAAAIRDELQAYRHN
notes: D domain, on phage
B13: SEQ ID NO: 503 (designed binder)
chain: B12 chain with Q43H
notes: D domain, on phage
B14: SEQ ID NO: 501 (designed binder)
chain: MGSWNFFKYDLADIMAYLEALGGSEAELAFFEDEIANFEHDLQKYKGKGNPEVEALRKEAAAIRDELQAYRHN
notes: D domain, on phage
B15: SEQ ID NO: 514 (designed binder)
chain: MGSWIWFKDWLADIKDLLEALGGSEAELAEFEYDIALFEDQLQAYKGKGNPEVEALRKEAAAIRDELQAYRHN
notes: D domain, on phage
B16: SEQ ID NO: 520 (designed binder)
chain: MGSWHWFKEELAEIKEDLVALGGSEAELAWFEYDIAMFELSLQNYKGKGNPEVEALRKEAAAIRDELQAYRHN
notes: D domain, on phage
B17: SEQ ID NO: 497 (designed binder)
chain: MGSWYYFKDELADIKWDLEALGGSEAELAWFEMLIAQFELDLQWYKGKGNPEVEALRKEAAAIRDELQAYRHN
notes: D domain, on phage
B18: SEQ ID NO: 499 (designed binder)
chain: B17 chain with Y6Q, D9H, E10D, W16Y, D17G, M33D, L34D, Q37D, W44Y
notes: D domain, on phage
B19: SEQ ID NO: 498 (designed binder)
chain: B17 chain with Y5M, E10T, D17Y, W30F, M33D, L34W, Q37E, L40D, W44V
notes: D domain, on phage
B20: SEQ ID NO: 509 (designed binder)
chain: B10 chain with F5Y, N6Q, E9T, V13W, F16D, Q17D, F30W, E44F
notes: D domain, on phage
B21: SEQ ID NO: 500 (designed binder)
chain: B17 chain with Y6V, E10D, W16Y, D17M, M33W, L34E, Q37N, L40F, W44Y
notes: D domain, on phage
B22: SEQ ID NO: 493 (designed binder)
chain: MGSWQDFKEDLAWIKYELEALGGSEAELAFFEYDIAIFENNLQHYKGKGNPEVEALRKEAAAIRDELQAYRHN
notes: D domain, on phage
B23: SEQ ID NO: 513 (designed binder)
chain: MGSWHVFKTELADIKFYLEALGGSEAELAMFELWIAEFEHELQDYKGKGNPEVEALRKEAAAIRDELQAYRHN
notes: D domain, on phage
B24: SEQ ID NO: 490 (designed binder)
chain: MGSWYDFKYDLAEIKMDLEALGGSEAELAQFEFDIAFFEEELQDYKGKGNPEVEALRKEAAAIRDELQAYRHN
notes: D domain, on phage
B25: SEQ ID NO: 495 (designed binder)
chain: MGSWYDFKEDLADIKWMLEALGGSEAELAEFENVIAYFENDLQEYKGKGNPEVEALRKEAAAIRDELQAYRHN
notes: D domain, on phage
B26: SEQ ID NO: 479 (designed binder)
chain: MGSWWEFKEDLAEIKWFLEALGGSEAELAWFEHDIAKFEFELQYYKGKGNPEVEALRKEAAAIRDELQAYRHN
notes: D domain, on phage
B27: SEQ ID NO: 488 (designed binder)
chain: B3 chain with S5A, F6W, D9E, Y16V, M30E, Q33V, T34S, E37D, D41E
notes: D domain, on phage
B28: SEQ ID NO: 482 (designed binder)
chain: B26 chain with W5T, E6F, E9D, F17M, H33S, K37Y, F40D, Y44W
notes: D domain, on phage
B29: SEQ ID NO: 481 (designed binder)
chain: B26 chain with W5N, E9D, E13M, W16M, F17T, K37E, F40D, E41D, Y44W
notes: D domain, on phage
B30: SEQ ID NO: 485 (designed binder)
chain: MGSWQYFKDDLAEIKMVLEALGGSEAELAWFEADIAMFEDDLQIYKGKGNPEVEALRKEAAAIRDELQAYRHN
notes: D domain, on phage
B31: SEQ ID NO: 483 (designed binder)
chain: B30 chain with Q5S, Y6D, V17I, W30Y, A33N, M37W, I44E
notes: D domain, on phage
B32: SEQ ID NO: 480 (designed binder)
chain: B26 chain with W5E, E6W, E9S, E13S, F17E, K37E, F40E, E41D, Y44W
notes: D domain, on phage
B33: SEQ ID NO: 484 (designed binder)
chain: B30 chain with Q5S, Y6M, M16A, V17S, A33D, M37W, I44H
notes: D domain, on phage
B34: SEQ ID NO: 506 (designed binder)
chain: MGSWQIFKGELAYIKQYLEALGGSEAELAFFEFDIAEFEEDLQYYKGKGNPEVEALRKEAAAIRDELQAYRHN
notes: D domain, on phage
B35: SEQ ID NO: 507 (designed binder)
chain: B10 chain with F5D, N6F, V13E, F16H, Q17Y, W33F, V34W, D40Q
notes: D domain, on phage
B36: SEQ ID NO: 519 (designed binder)
chain: MGSWLYFKEYLADIKSDLEALGGSEAELAWFEYEIADFEEQLQYYKGKGNPEVEALRKEAAAIRDELQAYRHN
notes: D domain, on phage
B37: SEQ ID NO: 471 (designed binder)
chain: MGSWFWFKEDLAFIKEDLEALGGSEAELAWFEDGIAFFEWDLQDYKGKGNPEVEALRKEAAAIRDELQAYRHN
notes: D domain, on phage
B38: SEQ ID NO: 516 (designed binder)
chain: B37 chain with F5T, E9D, D10N, F13W, D33L, G34E, F37S, W40T, D41A
notes: D domain, on phage
B39: SEQ ID NO: 496 (designed binder)
chain: B17 chain with Y6M, D9E, D17Y, M33D, L34D, Q37G, L40W, W44A
notes: D domain, on phage
B40: SEQ ID NO: 473 (designed binder)
chain: B37 chain with F5H, F13I, E16Q, W30T, D33Q, G34W, F37E, D44E
notes: D domain, on phage
B41: SEQ ID NO: 489 (designed binder)
chain: B37 chain with F5Y, W6E, E9F, F13E, D17Q, W30L, G34D, W40Y, D44N
notes: D domain, on phage
B42: SEQ ID NO: 474 (designed binder)
chain: B26 chain with W5N, E6W, E13I, W16M, F17D, D34N, K37G, Y44G
notes: D domain, on phage
B43: SEQ ID NO: 505 (designed binder)
chain: B37 chain with W6M, E9Q, D10E, F13W, W30D, D33W, G34D, F37E, D44Y
notes: D domain, on phage
B44: SEQ ID NO: 517 (designed binder)
chain: B37 chain with F5T, W6Y, E9N, F13G, W30Q, D33F, G34E, F37E, D41L
notes: D domain, on phage
B45: SEQ ID NO: 472 (designed binder)
chain: B37 chain with F5Q, F13E, E16H, G34F, F37Q, W40F, D44W
notes: D domain, on phage
B46: SEQ ID NO: 518 (designed binder)
chain: B37 chain with F5T, E9W, F13D, E16G, W30F, D33E, G34E, F37E, D41R
notes: D domain, on phage
B47: SEQ ID NO: 510 (designed binder)
chain: MGSWFEFKDYLADIKWDLEALGGSEAELAIFEHDIAYFEHNLQQYKGKGNPEVEALRKEAAAIRDELQAYRHN
notes: D domain, on phage
B48: SEQ ID NO: 511 (designed binder)
chain: B47 chain with F5V, E6R, Y10F, W16M, I30D, H33Y, D34H, Y37E, Q44E
notes: D domain, on phage
B49: SEQ ID NO: 504 (designed binder)
chain: MGSWFMFKEELADIKDWLEALGGSEAELASFESYIAWFEQDLQWYKGKGNPEVEALRKEAAAIRDELQAYRHN
notes: D domain, on phage
B50: SEQ ID NO: 494 (designed binder)
chain: MGSWDHFKNDLAWIKKHLEALGGSEAELAEFEAVIAYFELYLQGYKGKGNPEVEALRKEAAAIRDELQAYRHN
notes: D domain, on phage

What follows are binders tested against T1, recombinant human CD123-Fc (assay: phage ELISA, captured CD123-Fc).
Summary of the method: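 Readout is the clone-averaged A450 ratio of target-Fc over IgG1-Fc wells, detected with HRP-conjugated anti-M13. Each Fc protein (5 nM) was captured on goat anti-human IgG1-Fc-coated plates. Phage were rescued with VCSM13 from BCMA-panning colonies and added at 5× dilution.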

Binder	ELISA_avg
B1	3.5 ratio A450 target/IgG1-Fc
B2	4.1 ratio A450 target/IgG1-Fc
B3	10.1 ratio A450 target/IgG1-Fc
B4	5 ratio A450 target/IgG1-Fc
B5	4.8 ratio A450 target/IgG1-Fc
B6	6.9 ratio A450 target/IgG1-Fc
B7	4 ratio A450 target/IgG1-Fc
B8	6.8 ratio A450 target/IgG1-Fc
B9	11.1 ratio A450 target/IgG1-Fc
B10	6.1 ratio A450 target/IgG1-Fc
B11	3.3 ratio A450 target/IgG1-Fc
B12	4.3 ratio A450 target/IgG1-Fc
B13	3.5 ratio A450 target/IgG1-Fc
B14	4.4 ratio A450 target/IgG1-Fc
B15	7.3 ratio A450 target/IgG1-Fc
B16	3.1 ratio A450 target/IgG1-Fc
B17	4 ratio A450 target/IgG1-Fc
B18	4.7 ratio A450 target/IgG1-Fc
B19	3.1 ratio A450 target/IgG1-Fc
B20	6.6 ratio A450 target/IgG1-Fc
B21	3.8 ratio A450 target/IgG1-Fc
B22	3.2 ratio A450 target/IgG1-Fc
B23	5.4 ratio A450 target/IgG1-Fc
B24	3.2 ratio A450 target/IgG1-Fc
B25	8 ratio A450 target/IgG1-Fc

Binder	ELISA_avg
B26	5.1 ratio A450 target/IgG1-Fc
B27	3.5 ratio A450 target/IgG1-Fc
B28	3.3 ratio A450 target/IgG1-Fc
B29	3.5 ratio A450 target/IgG1-Fc
B30	3.6 ratio A450 target/IgG1-Fc
B31	4.7 ratio A450 target/IgG1-Fc
B32	5.7 ratio A450 target/IgG1-Fc
B33	5.2 ratio A450 target/IgG1-Fc
B34	4.7 ratio A450 target/IgG1-Fc
B35	3.7 ratio A450 target/IgG1-Fc
B36	3.7 ratio A450 target/IgG1-Fc
B37	13.7 ratio A450 target/IgG1-Fc
B38	6.9 ratio A450 target/IgG1-Fc
B39	7 ratio A450 target/IgG1-Fc
B40	5.5 ratio A450 target/IgG1-Fc
B41	4.6 ratio A450 target/IgG1-Fc
B42	3.1 ratio A450 target/IgG1-Fc
B43	7.2 ratio A450 target/IgG1-Fc
B44	3.6 ratio A450 target/IgG1-Fc
B45	3.8 ratio A450 target/IgG1-Fc
B46	5.9 ratio A450 target/IgG1-Fc
B47	3.8 ratio A450 target/IgG1-Fc
B48	5.8 ratio A450 target/IgG1-Fc
B49	5.7 ratio A450 target/IgG1-Fc
B50	3.3 ratio A450 target/IgG1-Fc
